# Results published in patent US9670515B2, “Methods for production of xylosylxylitol oligomers” (The Regents of the University of California, priority 2014, dated 2017).
# “Also recorded” adds a separate entry of the source.
# B1: GH43-7: second putative intracellular β-xylosidase from N. crassa with xylosyl-xylitol hydrolase activity (protein)
# chain: MPLVKNPILPGFNPDPSVLRVGQDYYIATSTFEWYPGVQIHHSTDLANWTLLTRPLNRKSQLDMRGDPDSCGVWAPCLSHDGDKFWLVYTDVKRKDGSFKDAHNFIVWADKIDGEWSDPVYVNSSGFDPSLFHDPDSGKKYFVNMLWDHRRRPLLFAGIAVQEWDAKTKKLVGERKNVYQGTELALAEAPHVYKRNGWYYLLIAEGGTGYEHACTLARSKDIWGPYKTHPEKHVLTSKDHPRAALQRAGHGDIVEIEDGRTYLVHLTGRPTTQLRRCVLGRETAIQECYWKDDWLYVKNGPVPSLWVDLLGERDESKYWEEKRYTFKDGLHKDFQWLRTPETERIFNVKDGKLTLIGREAIGSWFEQALVARRQEHFSYDAETVIDFSPTDERQFAGLTAYYCRYNFFYLTVTAHSDGQRELLIMSSEASWPIGNLNTPYVPYVQIPNEGKVKLALTIRGNQLQFYYAVLDSGDEELKKIGPVFDASIVSDECGGHQQHGSFTGAFVGVAASDLNGLAAEAKFDYLLYKPVKNQQDAYVRDNE
# modifications: N. crassa
# B2: B. subtilis GH43-7: GH43 enzyme from bacteria Bacillus subtilis, homologous to GH43-7 (protein, listed as Bacillus subtilis)
# chain: MKITNPVLKGFNPDPSICRAGEDYYIAVSTFEWFPGVQIHHSKDLVNWHLVAHPLQRVSQLDMKGNPNSGGVWAPCLSYSDGKFWLIYTDVKVVDGAWKDCHNYLVTCETINGDWSEPIKLNSSGFDASLFHDTDGKKYLLNMLWDHRIDRHSFGGIVIQEYSDKEQKLIGKPKVIFEGTDRKLTEAPHLYHIGNYYYLLTAEGGTRYEHAATIARSANIEGPYEVHPDNPILTSWHDPGNPLQKCGHASIVQTHTDEWYLAHLTGRPIHPDDDSIFQQRGYCPLGRETAIQKLYWKDEWPYVVGGKEGSLEVDAPSIPETIFEATYPEVDEFEDSTLNINFQTLRIPFTNELGSLTQAPNHLRLFGHESLTSTFTQAFVARRWQSLHFEAETAVEFYPENFQQAAGLVNYYNTENWTALQVTHDEELGRILELTICDNFSFSQPLNNKIVIPREVKYVYLRVNIEKDKYYYFYSFNKEDWHKIDIALESKKLSDDYIRGGGFFTGAFVGMQCQDTGGNHIPADFRYFRYKEK
# B3: XYR-1: xylose reductase from Neurospora crassa (protein)
# chain: MVPAIKLNSGFDMPQVGFGLWKVDGSIASDVVYNAIKAGYRLFDGACDYGNEVECGQGVARAIKEGIVKREELFIVSKLWNTFHDGDRVEPIVRKQLADWGLEYFDLYLIHFPVALEYVDPSVRYPPGWHFDGKSEIRPSKATIQETWTAMESLVEKGLSKSIGVSNFQAQLLYDLLRYAKVRPATLQIEHHPYLVQQNLLNLAKAEGIAVTAYSSFGPASFREFNMEHAQKLQPLLEDPTIKAIGDKYNKDPAQVLLRWATQRGLAIIPKSSREATMKSNLNSLDFDLSEEDIKTISGFDRGIRFNQPTNYFSAENLWIFG
# modifications: N. crassa
# B4: E. coli GH43-7: GH43 enzyme from bacteria Escherichia coli, homologous to GH43-7 (protein, listed as Escherichia coli)
# chain: MEITNPILTGFNPDPSLCRQGEDYYIATSTFEWFPGVRIYHSRDLKNWSLVSTPLDRVSMLDMKGNPDSGGIWAPCLSYADGKFWLLYTDVKIVDSPWKNGRNFLVTAPSIEGPWSEPIPMGNGGFDPSLFHDDDGRKYYIYRPWGPRHHSNPHNTIVLQAFDPQTGTLSPERKTLFTGTPLCYTEGAHLYRHAGWYYLMVAEGGTSYEHAVVVLRSKNIDGPYELHPDVTMMTSWHLPENPLQKSGHGSLLQTHTGEWYMAYLTSRPLRLPGVPLLASGGRGYCPLGRETGIARIEWRDGWPYVEGGKHAQLTVKGPQVAEQPAAVPGNWRDDFDASSLDPELQTLRIPFDDTLGSLTARPGFLRLYGNDSLNSTFTQSTVARRWQHFAFRAETRMEFSPVHFQQSAGLTCYYNSKNWSYCFVDYEEGQGRTIKVIQLDHNVPSWPLHEQPIPVPEHAESVWLRVDVDTLVYRYSYSFDGETWHTVPVTYEAWKLSDDYIGGRGFFTGAFVGLHCEDISGDGCYADFDYFTYEPV
# What was measured:
# CDT-2 = experiment: Yeast cell-based xylodextrin uptake assay; set-up: species or system Neurospora crassa; details: starting concentration 100 μM, 30 minutes
# Experimental: (§1) S. cerevisiae was grown in an optimized minimum medium (oMM) lacking uracil into late log phase. The oMM contained 1.7 g/L YNB (Sigma, Y1251), 2-fold appropriate CSM dropout mixture, 10 g/L (NH4)2SO4, 1 g/L MgSO4.7H2O, 6 g/L KH2PO4, 100 mg/L adenine hemisulfate, 10 mg/L inositol, 100 mg/L glutamic acid, 20 mg/L lysine, 375 mg/L serine and 100 mM 4-morpholineethanesulfonic acid (MES), pH 6.0 (Lin et al., submitted). Cells were then harvested and washed three times with assay buffer (5 mM MES, 100 mM NaCl, pH 6.0) and resuspended to a final OD600 of 40. Substrate stocks were prepared in the same assay buffer at a concentration of 200 μM. Transport assays were initiated by mixing equal volumes of the cell suspension and the substrate stock. Reactions were incubated at 30° C. with continuous shaking for 30 minutes. Samples were centrifuged at 14,000 rpm at 4° C. for 5 minutes to remove yeast cells. 400 μL of each sample supernatant was transferred to an HPLC vial containing 100 μL of 0.5 M NaOH, and the concentration of the remaining substrate was measured by HPAEC as described below.
# as §1, with “(Lin et al. 2014). Cells were” for “(Lin et al., submitted). Cells were”, “30 minutes. […] 400 μL” for “30 minutes. Samples were centrifuged at 14,000 rpm at 4° C. for 5 minutes to remove yeast cells. 400 μL”, “100 μL 0.5 M” for “100 μL of 0.5 M”
# [1] = β-xylosidase assay of GH43-2 and GH43-7 with xylosyl-xylitol and xylobiose; type: biochemical, Neurospora crassa; details: purified enzyme
# Experimental: For the β-xylosidase assay of GH43-2 with xylodextrins, 0.5 μM of purified enzyme was incubated with 0.1% in-house prepared xylodextrin or 1 mM xylobiose (Megazyme) in 1×PBS at 30° C. Reactions were sampled at 30 min and quenched by adding 5 volumes of 0.1 mM NaOH. The products were analyzed by HPAEC as described below. For pH profiling, acetate buffer at pH 4.0, 4.5, 5.0, 5.5, 6.0, and phosphate buffer at 6.5, 7.0, 7.5, 8 were added at a concentration of 0.1 M. For the β-xylosidase assay of GH43-2 and GH43-7 with xylosyl-xylitol, 10 μM of purified enzyme was incubated with 4.5 mM xylosyl-xylitol and 0.5 mM xylobiose in 20 mM MES buffer, pH=7.0, and 1 mM CaCl2 at 30° C. Reactions were sampled at 3 hours and quenched by heating at 99° C. for 10 min. The products were analyzed by ion-exclusion HPLC as described below.
# For the β-xylosidase assay of GH43-2 with xylodextrins, 0.5 μM of purified enzyme was incubated with 0.1% in-house prepared xylodextrin or 1 mM xylobiose (Megazyme) in 1×PBS at 30° C. Reactions were sampled at 30 min and quenched by adding 5 volumes of 0.1 M NaOH. The products were analyzed by HPAEC as described below. […] The products were analyzed by ion-exclusion HPLC as described below.
# [2] = Activity of bacterial GH43-7 enzymes on xylobiose or xylosyl-xylitol; type: biochemical; details: purified enzyme; for β-xylosidase activity: xylobiose (X2) substrate; for xylosyl-xylitol hydrolase activity: xylosyl-xylitol (xlt2) substrate
# Experimental: Experiments were also conducted to further explore potential xylosyl-xylitol hydrolase activity of other β-xylosidases. […] To see if these proteins actually have xylosyl-xylitol hydrolase activity, purified B. subtilis GH43-7 and purified E. coli GH43-7 were incubated with xylobiose (X2) or xylosyl-xylitol (xlt2) and their activity on these substrates was analyzed. […] In summary, two GH43 enzymes from bacteria Bacillus subtilis (AAB41091.1) and Escherichia coli (WP_000406872.1) were tested and confirmed to both cleave xylosyl-xylitol.
# S. cerevisiae strains transformed with pRS423_GH43-2, pRS423_GH43-7, or pRS313_NcXR were grown in oMM lacking histidine with 2% glucose until late log phase before harvesting by centrifugation. E. coli strains BL21DE3 transformed with pET302_BsGH43-7 or pET302_EcGH43-7 were grown in TB medium, induced with 0.2 mM IPTG at OD600 of 0.8, and harvested by centrifugation 12 hours after induction. Yeast or E. coli cell pellets were resuspended in a buffer containing 50 mM Tris-HCl, 100 mM NaCl, 0.5 mM DTT, pH 7.4 and protease inhibitor cocktail (Pierce). Cells were lysed with an Avestin homogenizer, and the clarified supernatant was loaded onto a HisTrap column (GE Healthcare). His-tagged enzymes were purified with an imidazole gradient, buffer-exchanged into 20 mM Tris-HCl, 100 mM NaCl, pH 7.4, and concentrated to 5 mg/mL.
# [3] = Xylose reductase assay of NcXR with xylodextrin; type: biochemical, Neurospora crassa; details: in vitro, xylodextrins with degrees of polymerization 2 to 4; products up to xlt3
# Experimental: For the xylose reductase assays of S. stipitis XR and N. crassa XR, 1 μM of purified enzyme was incubated with 0.06% xylodextrin and 2 mM NADPH in 1×PBS at 30° C. Reactions were sampled at 30 min and quenched by heating at 99° C. for 10 min. The products were analyzed by LC-QToF as described below.
# For the xylose reductase assays of NcXR, 1 μM of purified enzyme was incubated with 0.06% xylodextrin and 2 mM NADPH in 1×PBS at 30° C. Reactions were sampled at 30 min and quenched by heating at 99° C. for 10 min. The products were analyzed by LC-QToF as described below.
molecule,measurement,setting,value
OC1OC[C@@H](O[C@@H]2OC[C@@H](O[C@@H]3OC[C@@H](O[C@@H]4OC[C@@H](O)[C@H](O)[C@H]4O)[C@H](O)[C@H]3O)[C@H](O)[C@H]2O)[C@H](O)[C@H]1O (stereo partly shown) [xylotetraose],import into S. cerevisiae strains expressing cdt-2,CDT-2,able to import
OC1OC[C@@H](O[C@@H]2OC[C@@H](O[C@@H]3OC[C@@H](O)[C@H](O)[C@H]3O)[C@H](O)[C@H]2O)[C@H](O)[C@H]1O (stereo partly shown) [xylotriose],import into S. cerevisiae strains expressing cdt-2,CDT-2,able to import
OC1OC[C@@H](O[C@@H]2OC[C@@H](O)[C@H](O)[C@H]2O)[C@H](O)[C@H]1O (stereo partly shown) [xylobiose],import into S. cerevisiae strains expressing cdt-2,CDT-2,able to import
B1,β-xylosidase activity,[1]; xylobiose substrate,weak β-xylosidase activity
same,hydrolysis of xylosyl-xylitol into xylose and xylitol,[1]; xylosyl-xylitol substrate,rapidly hydrolyzed
B2,β-xylosidase activity,[2],exhibited β-xylosidase activity
same,xylosyl-xylitol hydrolase activity,[2],exhibited xylosyl-xylitol hydrolase activity
B3,production of xylosyl-xylitol oligomers from xylodextrin substrates,[3],able to directly produce xylosyl-xylitol oligomers; also recorded: generated xylosyl-xylitol products
B4,β-xylosidase activity,[2],exhibited β-xylosidase activity
same,xylosyl-xylitol hydrolase activity,[2],exhibited xylosyl-xylitol hydrolase activity
